US20240117018A1

Tests used:
Assay in all cases: cell-based or functional assay
[1] = target: HIV-1 Env pseudovirus X2088_c9 (HIV-1)
[2] = target: HIV-1 Env pseudovirus P1981_C5_3 (HIV-1)
[3] = target: HIV-1 Env pseudovirus C2101.c01 (HIV-1)
[4] = target: HIV-1 Env pseudovirus 6952.v1.c20 (HIV-1)
[5] = target: HIV-1 Env pseudovirus X2131_C1_B5 (HIV-1)
[6] = target: HIV-1 Env pseudovirus T250-4 (HIV-1)
[7] = target: HIV-1 Env pseudovirus 6480.v4.c25 (HIV-1)
[8] = target: HIV-1 Env pseudovirus 0815.v3.c3 (HIV-1)
[9] = target: HIV-1 Env pseudovirus 211-9 (HIV-1)
[10] = target: HIV-1 Env pseudovirus 235-47 (HIV-1)
[11] = target: HIV-1 Env pseudovirus 1056_10_TA11_1826 (HIV-1)
[12] = target: HIV-1 Env pseudovirus 1054_07_TC4_1499 (HIV-1)
[13] = target: HIV-1 Env pseudovirus 246F C1G (HIV-1)
[14] = target: HIV-1 Env pseudovirus HIV-0013095-2.11 (HIV-1)
[15] = target: HIV-1 Env pseudovirus HIV-16055-2.3 (HIV-1)
[16] = target: HIV-1 Env pseudovirus TRO.11 (HIV-1)
[17] = target: HIV-1 Env pseudovirus HIV-16845-2.22 (HIV-1)
[18] = target: HIV-1 Env pseudovirus HIV-001428-2.42 (HIV-1)

## 8ANC195 (antibody)
[1]
  IC50 (Titer in TZM.bl cells): > 50 µg/mL
  IC80 (Titer in TZM.bl cells): > 50 µg/mL
[2]
  IC50 (Titer in TZM.bl cells): 0.14 µg/mL
  IC80 (Titer in TZM.bl cells): 1.15 µg/mL
[3]
  IC50 (Titer in TZM.bl cells): 0.48 µg/mL
  IC80 (Titer in TZM.bl cells): 3.54 µg/mL
[4]
  IC50 (Titer in TZM.bl cells): 1.38 µg/mL
  IC80 (Titer in TZM.bl cells): 7.22 µg/mL
[5]
  IC50 (Titer in TZM.bl cells): 3.47 µg/mL
  IC80 (Titer in TZM.bl cells): > 50 µg/mL
[6]
  IC50 (Titer in TZM.bl cells): > 50 µg/mL
  IC80 (Titer in TZM.bl cells): > 50 µg/mL
[7]
  IC50 (Titer in TZM.bl cells): 0.16 µg/mL
  IC80 (Titer in TZM.bl cells): 1.13 µg/mL
[8]
  IC50 (Titer in TZM.bl cells): 1.94 µg/mL
  IC80 (Titer in TZM.bl cells): 1.94 µg/mL
[9]
  IC50 (Titer in TZM.bl cells): 1.34 µg/mL
  IC80 (Titer in TZM.bl cells): 8.43 µg/mL
[10]
  IC50 (Titer in TZM.bl cells): > 50 µg/mL
  IC80 (Titer in TZM.bl cells): > 50 µg/mL

## VRC01 (antibody)
[1]
  IC50 (Titer in TZM.bl cells): > 50 µg/mL
  IC80 (Titer in TZM.bl cells): > 50 µg/mL
[2]
  IC50 (Titer in TZM.bl cells): 0.46 µg/mL
  IC80 (Titer in TZM.bl cells): 1.26 µg/mL
[3]
  IC50 (Titer in TZM.bl cells): 0.36 µg/mL
  IC80 (Titer in TZM.bl cells): 1.17 µg/mL
[4]
  IC50 (Titer in TZM.bl cells): 0.04 µg/mL
  IC80 (Titer in TZM.bl cells): 0.12 µg/mL
[11]
  IC50 (Titer in TZM.bl cells): 0.92 µg/mL
  IC80 (Titer in TZM.bl cells): 3.28 µg/mL
[5]
  IC50 (Titer in TZM.bl cells): 0.51 µg/mL
  IC80 (Titer in TZM.bl cells): 1.54 µg/mL
[12]
  IC50 (Titer in TZM.bl cells): 0.71 µg/mL
  IC80 (Titer in TZM.bl cells): 2.85 µg/mL
[13]
  IC50 (Titer in TZM.bl cells): > 10 µg/mL
  IC80 (Titer in TZM.bl cells): > 10 µg/mL
[6]
  IC50 (Titer in TZM.bl cells): > 50 µg/mL
  IC80 (Titer in TZM.bl cells): > 50 µg/mL
[7]
  IC50 (Titer in TZM.bl cells): 0.04 µg/mL
  IC80 (Titer in TZM.bl cells): 0.09 µg/mL
[8]
  IC50 (Titer in TZM.bl cells): 0.06 µg/mL
  IC80 (Titer in TZM.bl cells): 0.13 µg/mL
[14]
  IC50 (Titer in TZM.bl cells): 0.11 µg/mL
  IC80 (Titer in TZM.bl cells): 0.33 µg/mL
[15]
  IC50 (Titer in TZM.bl cells): 0.08 µg/mL
  IC80 (Titer in TZM.bl cells): 0.26 µg/mL
[16]
  IC50 (Titer in TZM.bl cells): 0.21 µg/mL
  IC80 (Titer in TZM.bl cells): 0.83 µg/mL
[9]
  IC50 (Titer in TZM.bl cells): 14.3 µg/mL
  IC80 (Titer in TZM.bl cells): > 50 µg/mL
[17]
  IC50 (Titer in TZM.bl cells): 2.8 µg/mL
  IC80 (Titer in TZM.bl cells): 12.7 µg/mL
[10]
  IC50 (Titer in TZM.bl cells): 0.04 µg/mL
  IC80 (Titer in TZM.bl cells): 0.17 µg/mL
[18]
  IC50 (Titer in TZM.bl cells): 0.02 µg/mL
  IC80 (Titer in TZM.bl cells): 0.06 µg/mL

## 3BNC117 (antibody)
[1]
  IC50 (Titer in TZM.bl cells): > 50 µg/mL
  IC80 (Titer in TZM.bl cells): > 50 µg/mL
[2]
  IC50 (Titer in TZM.bl cells): 0.74 µg/mL
  IC80 (Titer in TZM.bl cells): 3.62 µg/mL
[3]
  IC50 (Titer in TZM.bl cells): 0.05 µg/mL
  IC80 (Titer in TZM.bl cells): 0.31 µg/mL
[4]
  IC50 (Titer in TZM.bl cells): 0.15 µg/mL
  IC80 (Titer in TZM.bl cells): 0.75 µg/mL
[5]
  IC50 (Titer in TZM.bl cells): 0.43 µg/mL
  IC80 (Titer in TZM.bl cells): 1.96 µg/mL
[6]
  IC50 (Titer in TZM.bl cells): > 15 µg/mL
  IC80 (Titer in TZM.bl cells): > 15 µg/mL
[7]
  IC50 (Titer in TZM.bl cells): 0.01 µg/mL
  IC80 (Titer in TZM.bl cells): 0.04 µg/mL
[8]
  IC50 (Titer in TZM.bl cells): 0.01 µg/mL
  IC80 (Titer in TZM.bl cells): 0.02 µg/mL
[9]
  IC50 (Titer in TZM.bl cells): 0.35 µg/mL
  IC80 (Titer in TZM.bl cells): 1.28 µg/mL
[10]
  IC50 (Titer in TZM.bl cells): 0.03 µg/mL
  IC80 (Titer in TZM.bl cells): 0.12 µg/mL

## VRC07 (antibody)
[1]
  IC50 (Titer in TZM.bl cells): > 50 µg/mL
  IC80 (Titer in TZM.bl cells): > 50 µg/mL
[2]
  IC50 (Titer in TZM.bl cells): 0.213 µg/mL
  IC80 (Titer in TZM.bl cells): 0.609 µg/mL
[3]
  IC50 (Titer in TZM.bl cells): 0.238 µg/mL
  IC80 (Titer in TZM.bl cells): 1.4 µg/mL
[4]
  IC50 (Titer in TZM.bl cells): 0.064 µg/mL
  IC80 (Titer in TZM.bl cells): 0.181 µg/mL
[5]
  IC50 (Titer in TZM.bl cells): 0.219 µg/mL
  IC80 (Titer in TZM.bl cells): 1.03 µg/mL
[6]
  IC50 (Titer in TZM.bl cells): > 50 µg/mL
  IC80 (Titer in TZM.bl cells): > 50 µg/mL
[7]
  IC50 (Titer in TZM.bl cells): 0.032 µg/mL
  IC80 (Titer in TZM.bl cells): 0.134 µg/mL
[8]
  IC50 (Titer in TZM.bl cells): 0.015 µg/mL
  IC80 (Titer in TZM.bl cells): 0.051 µg/mL
[9]
  IC50 (Titer in TZM.bl cells): 5.92 µg/mL
  IC80 (Titer in TZM.bl cells): 38 µg/mL
[10]
  IC50 (Titer in TZM.bl cells): 0.024 µg/mL
  IC80 (Titer in TZM.bl cells): 0.075 µg/mL
